Measurements taken from article PMC5817926 (2018).

Molecular target: ubiquitin polyprotein composed of nine identical repeats (Ubi)9 (UniProt P0CG48 1-76)
Test: extended unfolded state at 170 pN force (single-molecule force spectroscopy)

Sequence of ubiquitin polyprotein composed of nine identical repeats (Ubi)9 (P0CG48 1-684): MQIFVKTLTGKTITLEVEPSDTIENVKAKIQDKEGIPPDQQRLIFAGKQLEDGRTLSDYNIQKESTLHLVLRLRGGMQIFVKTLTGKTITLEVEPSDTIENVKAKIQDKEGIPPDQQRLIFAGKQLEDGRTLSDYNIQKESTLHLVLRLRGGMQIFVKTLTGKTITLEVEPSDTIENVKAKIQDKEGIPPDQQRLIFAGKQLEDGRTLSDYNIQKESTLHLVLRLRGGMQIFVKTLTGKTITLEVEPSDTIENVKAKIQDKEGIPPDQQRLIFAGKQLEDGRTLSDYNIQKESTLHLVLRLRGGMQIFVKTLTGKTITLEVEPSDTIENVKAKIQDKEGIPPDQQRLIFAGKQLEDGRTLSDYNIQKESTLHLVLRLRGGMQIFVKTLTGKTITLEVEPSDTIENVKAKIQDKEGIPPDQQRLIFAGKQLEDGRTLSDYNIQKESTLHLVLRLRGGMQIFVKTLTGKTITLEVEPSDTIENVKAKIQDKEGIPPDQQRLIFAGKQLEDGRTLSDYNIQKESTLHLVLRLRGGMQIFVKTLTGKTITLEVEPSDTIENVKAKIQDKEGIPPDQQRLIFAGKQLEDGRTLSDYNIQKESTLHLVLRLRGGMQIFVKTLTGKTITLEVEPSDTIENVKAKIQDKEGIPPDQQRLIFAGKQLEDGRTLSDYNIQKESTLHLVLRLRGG

B1: DnaJ (Hsp40) (natural protein)
chain: MAKQDYYEILGVSKTAEEREIRKAYKRLAMKYHPDRNQGDKEAEAKFKEIKEAYEVLTDSQKRAAYDQYGHAAFEQGGMGGGGFGGGADFSDIFGDVFGDIFGGGRGRQRAARGADLRYNMELTLEEAVRGVTKEIRIPTLEECDVCHGSGAKPGTQPQTCPTCHGSGQVQMRQGFFAVQQTCPHCQGRGTLIKDPCNKCHGHGRVERSKTLSVKIPAGVDTGDRIRLAGEGEAGEHGAPAGDLYVQVQVKQHPIFEREGNNLYCEVPINFAMAALGGEIEVPTLDGRVKLKVPGETQTGKLFRMRGKGVKSVRGGAQGDLLCRVVVETPVGLNERQKQLLQELQESFGGPTGEHNSPRSKSFFDGVKKFFDDLTR
koff: 0.0458 s⁻¹
